# From paper PMC9250652, “Functional analysis of the dihydroflavonol 4-reductase family of Camellia sinensis: exploiting key amino acids to reconstruct reduction activity” (Horticulture Research, 2022)
# Residue numbers refer to the chain shown, from its start. Names and notes keep the numbering of the source.
# B1: CsDFRa (Camellia sinensis) (protein)
# chain: MKDSVASATASAPGTVCVTGAAGFIGSWLVMRLLERGYIVRATVRDPANLKKVKHLLDLPKADTNLTLWKADLNEEGSFDEAIEGCSGVFHVATPMDFESKDPENEVIKPTINGVLSIIRSCTKAKTVKRLVFTSSAGTVNVQEHQQPVFDENNWSDLDFINKKKMTGWMYFVSKTLAEKAAWEAAKENNIDFISIIPTLVVGPFIMPTFPPSLITALSPITRNEGHYSIIKQGQFVHLDDLCESHIFLYERPQAEGRYICSSHDATIHDLAKLMREKWPEYNVPTEFKGIDKDLPVVSFSSKKLIGMGFEFKYSLEDMFRGAIDTCREKGLLPHSFAENPVNGNKV
# B2: CsDFRb1 (Camellia sinensis; C126T) (protein)
# chain: MEVVEVKNGYGGGGGTTVCVTGASGFIGSWLVMRLLQRGYYVRATVRDPDNTDKVKHLLDLPNATTHLSLWKADLDEDGSFDDAIQGCHGVFHVATPMNFVFVMDPENEYIKPTVDGVLNVMRSCTKAKTVKRIIYTSTMATIEYQQKPPSQYDESIWTDVDFCRARKMFAWMYLVAKTEAEKAAWKFAEDNGPDLITVHPCSVIGPFITPYKPPCTSMALALITKNKAFYPMLTQGHAVHVDDVCNAHIYLFEHPQAKGRYICSSHSFTILDLASSLSKKYPEYNIQTKFEDIDESLKPIPCPSKKLLDLGFKFKYNSDECDAGDLCAEAIEACKEKGQMPSL
# notes: only point mutants active
# B3: CsDFRb1 (Camellia sinensis; N120S) (protein)
# chain: B2 chain with N120S, T126C
# notes: only point mutants active
# B4: CsDFRc (Camellia sinensis) (protein)
# chain: MEDTKSKLQEGSAVESLTTTTYCVTGATGYIGSWLVKSLLQRGYRVHATVRNQAKTLHLLPLWGGGDRLRVFRADLHKEGSFNEAVQGCSGVFHVAASMEFEVPAKEDIDSYVRANVIEPAINGTLNLLKSCLKTPSVRRVVFTSSISTMTAKDSAGKWRSVVDESCQNPIDRVWKTKTGAWVYVLSKLLTEEAAFQFANENSIDLVSVITTTVAGPFLTSTVPTSVQVLLSPITGDSKFSRILSAVNSRMGSIALVHIEDICSAHIFLMEHDGAEGRYICSAHSSVISQLVDHLAKEHPFSNMQRLVEEEHGSVPSEISSKKLRDLGFNFKFGLEDIIHHTVSSCVDCGFLCPTVN
# Substrate: O=C1c2c(O)cc(O)cc2O[C@H](c2ccc(O)cc2)[C@H]1O
# Assay: purified protein
# Assay type: biochemical, Camellia sinensis
# Conditions: apparent Km, NADPH, 0.1 M potassium phosphate pH 7.0, 30 °C
row,Protein,Km
1,B1,145.10 µM
2,B2,131.09 µM
3,B3,148.96 µM
4,B4,42.31 µM

# Substrate: O=C1c2c(O)cc(O)cc2O[C@H](c2ccc(O)c(O)c2)[C@H]1O
# Assay: purified protein
# Assay type: biochemical, Camellia sinensis
# Conditions: apparent Km, NADPH, 0.1 M potassium phosphate pH 7.0, 30 °C
row,Protein,Km
1,B1,41.80 µM
2,B2,102.57 µM
3,B3,108.66 µM
4,B4,81.80 µM

# Substrate: O=C1c2c(O)cc(O)cc2O[C@H](c2cc(O)c(O)c(O)c2)[C@H]1O
# Assay: purified protein
# Assay type: biochemical, Camellia sinensis
# Conditions: apparent Km, NADPH, 0.1 M potassium phosphate pH 7.0, 30 °C
row,Protein,Km
1,B1,58.44 µM
2,B2,47.75 µM
3,B3,96.58 µM
4,B4,105.56 µM
